Assay results: PMC2705282 (Journal of molecular biology, 2009)

B1: wild-type URO-D module of single-chain URO-D (enzyme, human)
chain: MEANGLGPQGFPELKNDTFLRAAWGEETDYTPVWCMRQAGRYLPEFRETRAAQDFFSTCRSPEACCELTLQPLRRFPLDAAIIFSDILVVPQALGMEVTMVPGKGPSFPEPLREEQDLERLRDPEVVASELGYVFQAITLTRQRLAGRVPLIGFAGAPWTLMTYMVEGGGSSTMAQAKRWLYQRPQASHQLLRILTDALVPYLVGQVVAGAQALQLFESHAGHLGPQLFNKFALPYIRDVAKQVKARLREAGLAPVPMIIFAKDGHFALEELAQAGYEVVGLDWTVAPKKARECVGKTVTLQGNLDPCALYASEEEIGQLVKQMLDDFGPHRYIANLGHGLYPDMDPEHVGAFVDAVHKHSRLLRQN
B2: F217Y URO-D module of single-chain URO-D (enzyme, human)
chain: MEANGLGPQGFPELKNDTFLRAAWGEETDYTPVWCMRQAGRYLPEFRETRAAQDFFSTCRSPEACCELTLQPLRRFPLDAAIIFSDILVVPQALGMEVTMVPGKGPSFPEPLREEQDLERLRDPEVVASELGYVFQAITLTRQRLAGRVPLIGFAGAPWTLMTYMVEGGGSSTMAQAKRWLYQRPQASHQLLRILTDALVPYLVGQVVAGAQALQLYESHAGHLGPQLFNKFALPYIRDVAKQVKARLREAGLAPVPMIIFAKDGHFALEELAQAGYEVVGLDWTVAPKKARECVGKTVTLQGNLDPCALYASEEEIGQLVKQMLDDFGPHRYIANLGHGLYPDMDPEHVGAFVDAVHKHSRLLRQN

What was measured:
[1] = molecular target: B2; assay: crystal structure
[2] = molecular target: B1; assay: crystal structure

binding result [1]	binding result [2]	Binder
binds	–	B1
–	binds	B2
–	binds	Y164G URO-D module of single-chain URO-D (enzyme, human) MEANGLGPQGFPELKNDTFLRAAWGEETDYTPVWCMRQAGRYLPEFRETRAAQDFFSTCRSPEACCELTLQPLRRFPLDAAIIFSDILVVPQALGMEVTMVPGKGPSFPEPLREEQDLERLRDPEVVASELGYVFQAITLTRQRLAGRVPLIGFAGAPWTLMTGMVEGGGSSTMAQAKRWLYQRPQASHQLLRILTDALVPYLVGQVVAGAQALQLFESHAGHLGPQLFNKFALPYIRDVAKQVKARLREAGLAPVPMIIFAKDGHFALEELAQAGYEVVGLDWTVAPKKARECVGKTVTLQGNLDPCALYASEEEIGQLVKQMLDDFGPHRYIANLGHGLYPDMDPEHVGAFVDAVHKHSRLLRQN
